One block for each binder: values may come before it.
What was measured:
[1] = biological target: T1, CA6, tumor-associated MUC1-sialoglycotope (human, UniProt P15941 24-1255, carries the CA6 sialoglycotope (sialylated glycan epitope); sites not stated); assay: flow cytometry on WISH (CA6+) cells (method from Example 4)
T1 construct: whole, on cells; In the assays it is presented on WISH cells (CA6+); A2780 cells are CA6 negative; also called CA6 antigen; human CA6 tumor antigen

[2] = biological target: T1, CA6, tumor-associated …; assay: FACS binding assay (Free), Kd app
[3] = biological target: T1, CA6, tumor-associated …; assay: FACS binding assay (DOTA Conjugate), Kd app
[4] = biological target: T1, CA6, tumor-associated …; assay: flow cytometry (FACS) on WISH cells (CA6+), normalized fluorescence, without DOTA
[5] = biological target: T1, CA6, tumor-associated …; assay: flow cytometry (FACS) on WISH cells (CA6+), normalized fluorescence, with DOTA
[6] = biological target: T1, CA6, tumor-associated …; assay: flow cytometry (FACS) on WISH cells (CA6+)
Procedure: The B-Fab 1153 is a DS6-based engineered antibody-like binding protein containing a both L1 and L2 linkers as (G45)₂ and not containing a C-terminal 6x-His tag. Since this protein was lacking a His tag the protein was purified by […], Kappa-select and SEC. The in vitro binding solution was prepared at 1.6 mg/ml in PBS and binding affinity was characterized using flow cytometry in the WISH CA6+ cell line (FIG. 3C and FIG. 3D).

[7] = biological target: T1, CA6, tumor-associated …; assay: FACS binding assay (Free), Kd app; unconjugated (Free) B-Fab, not DOTA conjugate

T1 sequence (P15941 24-1255): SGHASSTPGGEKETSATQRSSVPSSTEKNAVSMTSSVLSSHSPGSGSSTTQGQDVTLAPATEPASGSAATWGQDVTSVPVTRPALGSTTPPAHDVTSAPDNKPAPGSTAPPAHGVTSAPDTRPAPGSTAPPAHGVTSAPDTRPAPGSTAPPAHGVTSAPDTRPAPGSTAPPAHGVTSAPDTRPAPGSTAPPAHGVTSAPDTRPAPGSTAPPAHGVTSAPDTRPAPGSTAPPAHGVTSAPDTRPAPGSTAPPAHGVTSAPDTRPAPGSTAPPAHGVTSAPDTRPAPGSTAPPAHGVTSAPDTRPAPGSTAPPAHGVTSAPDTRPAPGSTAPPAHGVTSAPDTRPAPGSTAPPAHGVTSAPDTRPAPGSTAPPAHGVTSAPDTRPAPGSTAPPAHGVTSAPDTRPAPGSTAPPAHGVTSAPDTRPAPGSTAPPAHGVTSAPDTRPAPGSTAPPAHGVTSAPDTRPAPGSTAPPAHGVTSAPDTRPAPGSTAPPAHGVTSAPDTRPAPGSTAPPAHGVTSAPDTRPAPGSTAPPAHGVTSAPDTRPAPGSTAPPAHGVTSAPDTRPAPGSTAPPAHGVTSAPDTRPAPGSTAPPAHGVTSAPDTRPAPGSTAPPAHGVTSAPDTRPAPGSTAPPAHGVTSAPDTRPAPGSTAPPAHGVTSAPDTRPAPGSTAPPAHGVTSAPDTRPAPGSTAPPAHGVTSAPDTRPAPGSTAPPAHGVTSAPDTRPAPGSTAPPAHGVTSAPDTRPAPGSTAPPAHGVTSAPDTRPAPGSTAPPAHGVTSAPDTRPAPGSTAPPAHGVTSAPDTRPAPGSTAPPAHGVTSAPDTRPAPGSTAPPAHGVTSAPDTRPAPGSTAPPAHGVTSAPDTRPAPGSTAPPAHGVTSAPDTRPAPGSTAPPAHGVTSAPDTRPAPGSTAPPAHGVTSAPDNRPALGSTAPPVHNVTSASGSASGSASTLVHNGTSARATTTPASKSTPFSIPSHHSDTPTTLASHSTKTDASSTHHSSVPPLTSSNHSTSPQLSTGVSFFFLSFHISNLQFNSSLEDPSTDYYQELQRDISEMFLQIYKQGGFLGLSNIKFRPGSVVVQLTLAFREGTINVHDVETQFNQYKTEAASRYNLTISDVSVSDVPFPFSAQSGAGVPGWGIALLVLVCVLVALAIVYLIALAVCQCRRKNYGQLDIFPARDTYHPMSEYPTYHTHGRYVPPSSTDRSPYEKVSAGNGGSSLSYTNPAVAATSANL

B1: B-Fab 1152 (Fab)
light: EIVLTQSPATMSASPGERVTITCSAHSSVSFMHWFQQKPGTSPKLWIYSTSSLASGVPARFGGSGSGTSYSLTISSMEAEDAATYYCQQRSSFPLTFGAGTKLELKGGGGSEIVLTQSPATMSASPGERVTITCSAHSSVSFMHWFQQKPGTSPKLWIYSTSSLASGVPARFGGSGSGTSYSLTISSMEAEDAATYYCQQRSSFPLTFGAGTKLELKRTVAAPSVFIFPPSDEQLKSGTASVVCLLNNFYPREAKVQWKVDNALQSGNSQESVTEQDSKDSTYSLSSTLTLSKADYEKHKVYACEVTHQGLSSPVTKSFNRGEC
heavy: EAQLVQSGAEVVKPGASVKMSCKASGYTFTSYNMHWVKQTPGQGLEWIGYIYPGNGATNYNQKFQGKATLTADPSSSTAYMQISSLTSEDSAVYFCARGDSVPFAYWGQGTLVTVSAGGGGSEAQLVQSGAEVVKPGASVKMSCKASGYTFTSYNMHWVKQTPGQGLEWIGYIYPGNGATNYNQKFQGKATLTADPSSSTAYMQISSLTSEDSAVYFCARGDSVPFAYWGQGTLVTVSAASTKGPSVFPLAPSSKSTSGGTAALGCLVKDYFPEPVTVSWNSGALTSGVHTFPAVLQSSGLYSLSSVVTVPSSSLGTQTYICNVNHKPSNTKVDKKVEPKSCDKTHT
notes: also called B-Fab G4S linker and C-terminal 6x-His tag; B-Fab DS6 based engineered antibody with GGGGS (G4S) linker and C-terminal 6x-His tag
Kd [1]: 88 nM

B5: DOTA conjugate of B-Fab 1153 (Fab)
light: EIVLTQSPATMSASPGERVTITCSAHSSVSFMHWFQQKPGTSPKLWIYSTSSLASGVPARFGGSGSGTSYSLTISSMEAEDAATYYCQQRSSFPLTFGAGTKLELKGGGGSGGGGSEIVLTQSPATMSASPGERVTITCSAHSSVSFMHWFQQKPGTSPKLWIYSTSSLASGVPARFGGSGSGTSYSLTISSMEAEDAATYYCQQRSSFPLTFGAGTKLELKRTVAAPSVFIFPPSDEQLKSGTASVVCLLNNFYPREAKVQWKVDNALQSGNSQESVTEQDSKDSTYSLSSTLTLSKADYEKHKVYACEVTHQGLSSPVTKSFNRGEC
heavy: EAQLVQSGAEVVKPGASVKMSCKASGYTFTSYNMHWVKQTPGQGLEWIGYIYPGNGATNYNQKFQGKATLTADPSSSTAYMQISSLTSEDSAVYFCARGDSVPFAYWGQGTLVTVSAGGGGSGGGGSEAQLVQSGAEVVKPGASVKMSCKASGYTFTSYNMHWVKQTPGQGLEWIGYIYPGNGATNYNQKFQGKATLTADPSSSTAYMQISSLTSEDSAVYFCARGDSVPFAYWGQGTLVTVSAASTKGPSVFPLAPSSKSTSGGTAALGCLVKDYFPEPVTVSWNSGALTSGVHTFPAVLQSSGLYSLSSVVTVPSSSLGTQTYICNVNHKPSNTKVDKKVEPKSCDKTHT
modifications: DOTA chelator conjugated, sites not stated (1.5-2.5 DOTA/fragment)
notes: also called B-Fab (DOTA Conjugate)
Kd [3]: 7.4 nM

B7: B-Fab 1151 (Fab)
light: EIVLTQSPATMSASPGERVTITCSAHSSVSFMHWFQQKPGTSPKLWIYSTSSLASGVPARFGGSGSGTSYSLTISSMEAEDAATYYCQQRSSFPLTFGAGTKLELKGGGGSGGGGSEIVLTQSPATMSASPGERVTITCSAHSSVSFMHWFQQKPGTSPKLWIYSTSSLASGVPARFGGSGSGTSYSLTISSMEAEDAATYYCQQRSSFPLTFGAGTKLELKRTVAAPSVFIFPPSDEQLKSGTASVVCLLNNFYPREAKVQWKVDNALQSGNSQESVTEQDSKDSTYSLSSTLTLSKADYEKHKVYACEVTHQGLSSPVTKSFNRGEC
heavy: EAQLVQSGAEVVKPGASVKMSCKASGYTFTSYNMHWVKQTPGQGLEWIGYIYPGNGATNYNQKFQGKATLTADPSSSTAYMQISSLTSEDSAVYFCARGDSVPFAYWGQGTLVTVSAGGGGSGGGGSEAQLVQSGAEVVKPGASVKMSCKASGYTFTSYNMHWVKQTPGQGLEWIGYIYPGNGATNYNQKFQGKATLTADPSSSTAYMQISSLTSEDSAVYFCARGDSVPFAYWGQGTLVTVSAASTKGPSVFPLAPSSKSTSGGTAALGCLVKDYFPEPVTVSWNSGALTSGVHTFPAVLQSSGLYSLSSVVTVPSSSLGTQTYICNVNHKPSNTKVDKKVEPKSCDKTHT
notes: It also carries a C-terminal 6x-His tag; also called B-Fab (G4S)2 linker and C-terminal 6x-His tag
Kd [1]: 3.4 nM

B8: B-Fab 1153 (Fab)
light: EIVLTQSPATMSASPGERVTITCSAHSSVSFMHWFQQKPGTSPKLWIYSTSSLASGVPARFGGSGSGTSYSLTISSMEAEDAATYYCQQRSSFPLTFGAGTKLELKGGGGSGGGGSEIVLTQSPATMSASPGERVTITCSAHSSVSFMHWFQQKPGTSPKLWIYSTSSLASGVPARFGGSGSGTSYSLTISSMEAEDAATYYCQQRSSFPLTFGAGTKLELKRTVAAPSVFIFPPSDEQLKSGTASVVCLLNNFYPREAKVQWKVDNALQSGNSQESVTEQDSKDSTYSLSSTLTLSKADYEKHKVYACEVTHQGLSSPVTKSFNRGEC
heavy: EAQLVQSGAEVVKPGASVKMSCKASGYTFTSYNMHWVKQTPGQGLEWIGYIYPGNGATNYNQKFQGKATLTADPSSSTAYMQISSLTSEDSAVYFCARGDSVPFAYWGQGTLVTVSAGGGGSGGGGSEAQLVQSGAEVVKPGASVKMSCKASGYTFTSYNMHWVKQTPGQGLEWIGYIYPGNGATNYNQKFQGKATLTADPSSSTAYMQISSLTSEDSAVYFCARGDSVPFAYWGQGTLVTVSAASTKGPSVFPLAPSSKSTSGGTAALGCLVKDYFPEPVTVSWNSGALTSGVHTFPAVLQSSGLYSLSSVVTVPSSSLGTQTYICNVNHKPSNTKVDKKVEPKSCDKTHT
notes: also called B-Fab (G4S)2 linker; B-Fab (G4S)2 linker without C-terminal 6xHis tag
EC50 (read off the curve) [6]: ~2 nM
Kd [1]: 2.3 nM
Kd [7]: 4 nM

More lines, now with the values ahead:

Kd [2]: 10 nM
B2: anti-CA6 diabody of SEQ ID NO: 12 fused to a tag of SEQ ID NO: 14 (other)
chain: EIVLTQSPATMSASPGERVTITCSAHSSVSFMHWFQQKPGTSPKLWIYSTSSLASGVPARFGGSGSGTSYSLTISSMEAEDAATYYCQQRSSFPLTFGAGTKLELKGGGSGGGGEAQLVQSGAEVVKPGASVKMSCKASGYTFTSYNMHWVKQTPGQGLEWIGYIYPGNGATNYNQKFQGKATLTADPSSSTAYMQISSLTSEDSAVYFCARGDSVPFAYWGQGTLVTVSAGGCGGHHHHHH

Kd [3]: 7.5 nM
B3: DOTA conjugate of the anti-CA6 diabody (SEQ ID NO: 12 fused to SEQ ID NO: 14) (other)
chain: EIVLTQSPATMSASPGERVTITCSAHSSVSFMHWFQQKPGTSPKLWIYSTSSLASGVPARFGGSGSGTSYSLTISSMEAEDAATYYCQQRSSFPLTFGAGTKLELKGGGSGGGGEAQLVQSGAEVVKPGASVKMSCKASGYTFTSYNMHWVKQTPGQGLEWIGYIYPGNGATNYNQKFQGKATLTADPSSSTAYMQISSLTSEDSAVYFCARGDSVPFAYWGQGTLVTVSAGGCGGHHHHHH
modifications: DOTA chelator conjugated, sites not stated
notes: Homodimeric diabody conjugated to DOTA; also called Diabody (DOTA Conjugate)

EC50 (read off the curve) [4]: ~2 nM
Kd [4]: 2.2 nM
B4: DS6 B-Fab antibody-like binding protein (variant not named) (Fab)
light: EIVLTQSPATMSASPGERVTITCSAHSSVSFMHWFQQKPGTSPKLWIYSTSSLASGVPARFGGSGSGTSYSLTISSMEAEDAATYYCQQRSSFPLTFGAGTKLELKGGGGSGGGGSEIVLTQSPATMSASPGERVTITCSAHSSVSFMHWFQQKPGTSPKLWIYSTSSLASGVPARFGGSGSGTSYSLTISSMEAEDAATYYCQQRSSFPLTFGAGTKLELKRTVAAPSVFIFPPSDEQLKSGTASVVCLLNNFYPREAKVQWKVDNALQSGNSQESVTEQDSKDSTYSLSSTLTLSKADYEKHKVYACEVTHQGLSSPVTKSFNRGEC
heavy: EAQLVQSGAEVVKPGASVKMSCKASGYTFTSYNMHWVKQTPGQGLEWIGYIYPGNGATNYNQKFQGKATLTADPSSSTAYMQISSLTSEDSAVYFCARGDSVPFAYWGQGTLVTVSAGGGGSGGGGSEAQLVQSGAEVVKPGASVKMSCKASGYTFTSYNMHWVKQTPGQGLEWIGYIYPGNGATNYNQKFQGKATLTADPSSSTAYMQISSLTSEDSAVYFCARGDSVPFAYWGQGTLVTVSAASTKGPSVFPLAPSSKSTSGGTAALGCLVKDYFPEPVTVSWNSGALTSGVHTFPAVLQSSGLYSLSSVVTVPSSSLGTQTYICNVNHKPSNTKVDKKVEPKSCDKTHT
notes: also called B-Fab DS6 based engineered antibody

EC50 (read off the curve) [5]: ~6 nM
Kd [5]: 6.6 nM
B6: DOTA-DS6 conjugated antibody (B-Fab with DOTA, variant not named) (Fab)
light: EIVLTQSPATMSASPGERVTITCSAHSSVSFMHWFQQKPGTSPKLWIYSTSSLASGVPARFGGSGSGTSYSLTISSMEAEDAATYYCQQRSSFPLTFGAGTKLELKGGGGSGGGGSEIVLTQSPATMSASPGERVTITCSAHSSVSFMHWFQQKPGTSPKLWIYSTSSLASGVPARFGGSGSGTSYSLTISSMEAEDAATYYCQQRSSFPLTFGAGTKLELKRTVAAPSVFIFPPSDEQLKSGTASVVCLLNNFYPREAKVQWKVDNALQSGNSQESVTEQDSKDSTYSLSSTLTLSKADYEKHKVYACEVTHQGLSSPVTKSFNRGEC
heavy: EAQLVQSGAEVVKPGASVKMSCKASGYTFTSYNMHWVKQTPGQGLEWIGYIYPGNGATNYNQKFQGKATLTADPSSSTAYMQISSLTSEDSAVYFCARGDSVPFAYWGQGTLVTVSAGGGGSGGGGSEAQLVQSGAEVVKPGASVKMSCKASGYTFTSYNMHWVKQTPGQGLEWIGYIYPGNGATNYNQKFQGKATLTADPSSSTAYMQISSLTSEDSAVYFCARGDSVPFAYWGQGTLVTVSAASTKGPSVFPLAPSSKSTSGGTAALGCLVKDYFPEPVTVSWNSGALTSGVHTFPAVLQSSGLYSLSSVVTVPSSSLGTQTYICNVNHKPSNTKVDKKVEPKSCDKTHT
modifications: DOTA chelator conjugated, sites not stated

— patent US20140256916A1 (Sanofi, published 2014)
